Laboratory results reported in the nanobody polyreactivity screen of Harvey et al. (2022).

Assay: yeast display, Sf9 membrane polyspecificity reagent, FACS + sequencing; frameworks hold sequencing errors
Method in brief: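 Using colony PCR, genes from sorted yeast display clones were amplified, then sequenced on MiSeq at 2 × 250 and filtered by CDR length. The clones had been stained with 10% biotinylated, detergent-solubilized Sf9 membrane reagent for 1 hour at 4 °C and sorted by FACS into low and high (top ~1%) gates on anti-HA and streptavidin fluorescence. Polyreactivity labels come from the gate of origin.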

Sequence | polyreactivity (PSR sort gate)
QVQLVESGVCLVQAGGSLRLICAASGNTFYRYAMGWYRQAPGKERELVAAITGRGGSTYYADSVKGRFTISRDNAKNTVYLQMNSQKPEDTAVYYCAAESYGYGNDYWGQGTQVTVSS | low polyreactivity
QVQLVESGVCLVQAGGSLRLSCAASGFTFKWYAMGWYRQAPGKERELVATITIGGRTNYADSVKGRFTISRDNAKNTVYLQMNSLKPEETAVYYCATYFVGFRLSDYDYWGQGTQVTVSS | low polyreactivity
QVQLVESGVCLVQAGGSLRLSCAASGSTYTYAMGWYRQAPGKERELVADITQSGGSTYYADSVKGRFTISRDNAKKTVYLQMNTLKPEDTAVYYCNAESRHVFEDEYWGQGTQVTVSS | low polyreactivity
QVQLVESGVCLVQAGGSLRLSCAATGFTIKYYAMGWYRQPPGKEMELVAAISWTGANTYYADSVKGRFTISRDNAKNTVYLQMNSLKPDYTAVYYCAAGYLIGHSVRTTVRTIYEYWGQGTQVTVSS | high polyreactivity
QVQLVESGVGLDQAGGSLRLSCAASGGIIAINAMGWYSQAPGKERELVAAISWGDGMTYYADSVKGRFTISRDNAKNTVYLQMNSLKPDDSAVYYCAADADEYRGGDVSWGQGTQVTVSS | low polyreactivity
QVQLVESGVGLLQEGGSLSLSCAASGRTFRWYGMGWYSQAPGKEREFVAAISFRGGTTYYADSVKGRFTISRDNAKNTVYLQMNSLKPEDTAVYYCAARSGYYTSDYKYYYWGQGTQVTVSS | high polyreactivity
QVQLVESGVGLVKAGGSLRLSCAASGFTIRPYAMGWYRQAPGKERELVAAITSGDSTNYADSVKGRFTISRDNAKNTVYLQMNSLKPEDTAVYYCAVDGGEFTSYGYWGQGTQVTVSS | low polyreactivity
QVQLVESGVGLVKAGGTLRLSCAASGGIFDYNAMGWYRQAPGKERELVAYYADSVKGRFTLSRDNAKNTVYLQMNSLKPEDTAVYYCAVDGGEFSSYGYWGQGTQVTVSS | low polyreactivity
QVQLVESGVGLVNAGGSLRLSCAASGYIFSPNVMGWYRQAPGKERELVAAITRGGGTYYADSVKGRFTISRDNAKNTVYLHLNSLKPEDTAVYYCNEDYTLSVYGTTYCYNYWGQGTQVTVSS | high polyreactivity
QVQLVESGVGLVQAAGSLRLSCAASGRIFYHYTMGWYRQAPGKERELVAAITSGGSTYYADSVKGRFTISRDNAKNTVYLQMNSLKPEDTAVYYCAAEGYTYYPVYSTRMYYWGQGTQVTVSS | low polyreactivity
QVQLVESGVGLVQAGGSIRLSCAASGRTFRYYTMGWYRQAPGKEREFVAAISSTGGTYYADSVKGRFTISRDNAKNTVYLQMNSLKPEDTAVYYCAATFIQVVVNVQLYDYDYWGQGTQVSVSS | low polyreactivity
QVQLVESGVGLVQAGGSLRLCCAASGSTSKYYAMVWYRQSPGKERELVAAITWSDVSTYYADSVKGRFTISRDNAKNTVYLQMNSLKPADTAVYYCNAGYDYWGQGTQVTVSS | low polyreactivity
QVQLVESGVGLVQAGGSLRLICAASGRIFANYAMGWYRQAPGKERELVAAITGSGGTTYYADSVKGRFTISRDNAKNSVYLEMNSLKPEDTAVYYCATPPPVVWQRWYREYDYWGQGTQVTVSS | low polyreactivity
QVQLVESGVGLVQAGGSLRLIWAASGSTFVKNVMGWYRQAPGKERELVAGITRGGSTYYADSVKGRFTISRDNAKKTVYLQMNSLKPEDTAVYYCAKRYAWDRDYWGQGTQVTVSS | high polyreactivity
QVQLVESGVGLVQAGGSLRLSCAASGFIFYGYAMGWYRQAPGKERELVAGNSTGGSTNYADSVKGRFTISRENAKNTVYLQMNSMKPEDTAVYDGAVVDVEQHVGHWGQVTQVTVSS | low polyreactivity
QVQLVESGVGLVQAGGSLRLSCAASGFIIRTYAMGWYIQAPGKERELVATITGDGSTNYADSVKGRFTISRDNAKNTVYLQMNSLKPEDTAVYYCSRDDRLAVDYWGQGTQVTVSS | low polyreactivity
QVQLVESGVGLVQAGGSLRLSCAASGFTFMKNAMGWYRQAPGKERELVAAITSSGGRPYYADSVKGRFTISRDIAKNTVYLQMNSLKPEDTAVYYCNKGPLPGYDYWGQGTQVTVSS | high polyreactivity
QVQLVESGVGLVQAGGSLRLSCAASGFTFTRYAMGWYRQAPGKERELVAAISWTGGSTYYADSVKGRFTISRDNAKNTVYLQMNSLKPEDTAVYYCAGRFNYQWSKFGYWGQGTQVTVSS | high polyreactivity
QVQLVESGVGLVQAGGSLRLSCAASGGIFVPYAMGWYRQAPGKERELVAGITSGGSTNYADSVKGRFTISRDNAKNTVYLQMNSLKPEDTAVYYCAARRRPGGRYKSRVWYDYWGQGTQVTVSS | high polyreactivity
QVQLVESGVGLVQAGGSLRLSCAASGGNFWSYPMGLYRQAPGKEREYVAAITTSAGRTNYADSVKGRFTISRDNAKNSVYLQMNSLKPEDTAVYYCAARSAYPGLGYGFDYWGQGTQVTVSS | low polyreactivity
QVQLVESGVGLVQAGGSLRLSCAASGIILYRYSMGWYRQAPGKEREFGAAISRTGASTYYADSVKGRFTISRDNAKKSVYLQMNSRKPEDTAVYYCDVKALDQARYGKSGYWGQGTQVSVSS | high polyreactivity
QVQLVESGVGLVQAGGSLRLSCAASGITFAGNAMGWYRQAPGKERELVATITSDGNTNYADSVKGRFTISRDNAKNTVYLQMNSLKPEDTAVYYCNAEVIVGTDEYDYWGQGTQVTVSS | low polyreactivity

Sequence | polyreactivity (PSR sort gate)
QVQLVESGVGLVQAGGSLRLSCAASGITFYSYAMGWYRQAPGKERELVAAITLTGGTTYYADSVKGRFTISRDNAKNTVYLQMKSLKPEDTAVYYCAAQYWWWSLFEYDSWGQGTQVTVSS | low polyreactivity
QVQLVESGVGLVQAGGSLRLSCAASGNIFLKNAMGWYRQAPGKERELVAAMSKRGGSTYYADSVKGRFTISRDNAKNTVYLQMNSLKPEDTAVYYCAARFKTTGYDYWGQGTQVTVSS | high polyreactivity
QVQLVESGVGLVQAGGSLRLSCAASGPTFRNNAMVWSRQAPGKERELVAAITSGGSTNYADSVKGRFTISRDNAKNTVYLQMNSLKPEDTAVYYCAKDFWYVTGGWSSGMDYWGQGTQVSVSS | low polyreactivity
QVQLVESGVGLVQAGGSLRLSCAASGRIFEDNAMGWYRQAPGKERELVAAIDFSGGDTYYADSVKGRFTISRDNAKNTVYLQMYSLKPEDTAVYYCAAGRSGWGYVSWGQGTQVTVSS | low polyreactivity
QVQLVESGVGLVQAGGSLRLSCAASGRIFGSYTMGWYRQAPGKERELVAGISRRGGSTYYADSVKGRFTISRDNAKNTVYLQMNSLKPEDTAVYYCAVVSSHYKGPGRNGYDYWGQGTQVTVSS | high polyreactivity
QVQLVESGVGLVQAGGSLRLSCAASGRTFDYNAMGWYIQAPGKERELVAAITSSGGSTYYADSVKGRFTISRDNAKNTVYLQMNSLKPEDTAVYYCDTDGQSPYYIYYWGQGTQVTVSS | low polyreactivity
QVQLVESGVGLVQAGGSLRLSCAASGRTFRPYALGWYRQAPGNERELVAAIDSGGSTYADSVKGRFTISRDNAKTTVYLQMNSLKPEDTAVYYSAAVTQTAWLWYGYWGQGTQVTVSS | low polyreactivity
QVQLVESGVGLVQAGGSLRLSCAASGRTLSKNAMGWYRQAPWKERELVATMSSVGRTNYADSVKGRFTISRDNAKNTVYLQMNSLKPEDTAVYYCAARRFRGSYYWGQGTQVTVSS | high polyreactivity
QVQLVESGVGLVQAGGSLRLSCAASGSIFGPYAMGWSRQAPGKERELVAAISLGGGSTYYAASVKGRFTISRDNAKNTVYLQMNSVKPEDTAVYYCNAEFSSGPYGYNGFDYWGQGTQVTVSS | low polyreactivity
QVQLVESGVGLVQAGGSLRLSCAASGSIFPGYAMGWYRQAPGKEMELVAGITWSDARTYYADSVKVRFTISRDNAKNTVYLQMNSLKPEDTAVYYCAADYYYYERDYWGQGTQVTVSS | low polyreactivity
QVQLVESGVGLVQAGGSLRLSCAASGSIFPHYAMGWYRQAPGKERELVAAISSGTSTNYADSVKGRFTISRDNAKNTVYLQMNSLKPEDTAVYFCAADYYSGYDSVDGDYNYWGQGTQVTVSS | low polyreactivity
QVQLVESGVGLVQAGGSLRLSCAASGSIFRYYAMGWYRQAPGKEREFVADITWSGTSTYYADSVKGRFTISRDNAKNTVYFQMNSLKPEDTAVFYCNKYRSYWSGPSYWREYDYWGQGTQVTVSS | high polyreactivity
QVQLVESGVGLVQAGGSLRLSCAASGSILSGYAMGWYRQAPGKERELVAAINDGGGTNYADSVKGRFTISRDNAKNTVYLQMNSLKPEDTAVYYCNKVYYFQRRLTPVYLMDYWGQGTQVTVSS | low polyreactivity
QVQLVESGVGLVQAGGSLRLSCAASGSISDVYAMGVYRQAPGKERDLVAAITSGASTYYADSVKGRFTISLDNAKNTVYLQINSLKPEDTAVYYCSAGYSDWYYAAYNSWGQGTQVTVST | low polyreactivity
QVQLVESGVGLVQAGGSLRLSCAASGSNSGLYAMGWYRQAPGKERELVAAIRWSGGSTRYADSVKGRFTISRDNAKNTVYLLMNSLKPEDTAVYYCAADFYSKFVRFGYWGQGTQVTVSS | high polyreactivity
QVQLVESGVGLVQAGGSLRLSCAASGSTFAKYAMGWYRQAPGKERELVASIRLSGGSTYYADSVKGRFTISRDNAKNTVYLQMNSLKPEDTAVYYCAADVIVFYYAPNYWGDIEYGYWGQGTQVTVSS | low polyreactivity
QVQLVESGVGLVQAGGSLRLSCAASGSTFDDYAMGWYRQAPGKERELVAAINKTGGSTNYADSVKGRFTISRDNAKNTVYLQMNSLKPEDNAVYYCAADGSNYSASVAAFPYRVDYWGQGTQVTVSS | low polyreactivity
QVQLVESGVGLVQAGGSLRLSCAASGSTFGGYAMGWYRQAPGKDTEFVAAISYDGDSTYYADSVKGRFTISRDNAKNTVYLQMNSLKPEDTAVYYCAADISYHYGVWYFYYWGQGTQVTVSS | low polyreactivity
QVQLVESGVGLVQAGGSLRLSCAASGSTFKGYTMGWYRQAPGKERELVAAITYSGGRTYYADSVKGRFTISRDNAKNTVYLQMNSLKPEDTAVYYCAARQQWVKVEYDYWGQGTQVTVSS | high polyreactivity
QVQLVESGVGLVQAGGSLRLSCAASGSTFRYYGMGWYRQAPGKEMELVAAISSSGGSTYYADSLKGRFTISRDNAKNTVSLQMNSLKPEDTAVYYCAAGSRFVSSRLYYWGQGTQVTVSS | high polyreactivity
QVQLVESGVGLVQAGGSLRLSCAASGYTFAYNAMGWYRPAPGKERELVAAITSRAGSTHYADSVKGRFTISRDNAKNTVYLQMNSLKPEDTAVYYCAAKRYNRLRSYRYSDREDYWGQGTQVTVSS | high polyreactivity
